Positions count from the first letter of the chain named.
B1: Mu_19F07_VH (SEQ ID NO: 47)_Y33A (antibody, V domains shown)
VH: EVKLVESEGGLVQPGSSMKLSCTASGFTFSDYAMAWVRQVPEKGLEWVANINYDGSSTYYLDSLKSRFIISRDNAKNILYLQMSSLKSEDTATYYCARGLTWDFDVWGTGTTVTVSS
VL: DIVMTQSHKFMSPSVGDRVSITCKASQDVDTAVAWYQQKPGQSPKLLIYLASTRHTGVPDRFTGSGSGTDFTLTISNVQSEDLADYFCQQYSRFPLTFGAGTKLELKR
B2: Mu_19F07_VL (SEQ ID NO: 49)_Q89A (antibody, V domains shown)
VH: B1 VH with A33Y
VL: B1 VL with Q89A
B3: Mu_19F07_VH (SEQ ID NO: 47)_F104A (antibody, V domains shown)
VH: B1 VH with A33Y, F104A
VL: B1 VL
B4: Mu_19F07_VH (SEQ ID NO: 47)_W102A (antibody, V domains shown)
VH: B1 VH with A33Y, W102A
VL: B1 VL
B5: Mu_19F07_VL (SEQ ID NO: 49)_F94A (antibody, V domains shown)
VH: B1 VH with A33Y
VL: B1 VL with F94A
B6: Mu_19F07_VL (SEQ ID NO: 49)_T53A (antibody, V domains shown)
VH: B1 VH with A33Y
VL: B1 VL with T53A
B7: Mu_19F07_VL (SEQ ID NO: 49)_Q90A (antibody, V domains shown)
VH: B1 VH with A33Y
VL: B1 VL with Q90A
B8: Mu_19F07_VH (SEQ ID NO: 47)_S56A (antibody, V domains shown)
VH: B1 VH with A33Y, S56A
VL: B1 VL
B9: Mu_19F07_VL (SEQ ID NO: 49)_L50A (antibody, V domains shown)
VH: B1 VH with A33Y
VL: B1 VL with L50A
B10: Mu_19F07_VH (SEQ ID NO: 47)_Y59A (antibody, V domains shown)
VH: B1 VH with A33Y, Y59A
VL: B1 VL
B11: Mu_19F07_VH (SEQ ID NO: 47)_Y60A (antibody, V domains shown)
VH: B1 VH with A33Y, Y60A
VL: B1 VL
B12: Mu_10F07_VH (SEQ ID NO: 39)_D99A (antibody, V domains shown)
VH: DVKLVESGEGLVKPGGSLKLSCAASGFTFSSYAMSWVRQTPEKRLEWVTYISSGGDYFYYADTVKGRFTISRDNARNTLYLQMSSLKSEDTAMYYCTRAPITGTFAYWGQGTLVTVSA
VL: DIQMTQTTSSLSASLGDRVTISCRASQDITNYLNWYQQKPDGTVKLLIYYTSTLHSGVPSRFSGSGSGTDFSLTISNLEQEDIATYFCQQGHMLPWTFGGGTKLEIKR
B13: Mu_10F07_VL (SEQ ID NO: 41)_T97A (antibody, V domains shown)
VH: B12 VH with A99D
VL: B12 VL with T97A
B14: Mu_10F07_VL (SEQ ID NO: 41)_T53A (antibody, V domains shown)
VH: B12 VH with A99D
VL: B12 VL with T53A
B15: Mu_10F07_VL (SEQ ID NO: 41)_L33A (antibody, V domains shown)
VH: B12 VH with A99D
VL: B12 VL with L33A
B16: Mu_10F07_VL (SEQ ID NO: 41)_Y50A (antibody, V domains shown)
VH: B12 VH with A99D
VL: B12 VL with Y50A
B17: Mu_10F07_VL (SEQ ID NO: 41)_W96A (antibody, V domains shown)
VH: B12 VH with A99D
VL: B12 VL with W96A
B18: Mu_10F07_VH (SEQ ID NO: 39)_I101A (antibody, V domains shown)
VH: B12 VH with A99D, I101A
VL: B12 VL
B19: Mu_10F07_VH (SEQ ID NO: 39)_Y107A (antibody, V domains shown)
VH: B12 VH with A99D, Y107A
VL: B12 VL

Biological target: T1, ANTIBODY EXPRESSION CONTROL
T1 construct: also called mouse anti-canine antibody (capture reagent of the expression control ELISA)
Test: SPR Biacore, expression control
Protocol: The affinity with which candidate mAbs bind canine, feline, and human (SEQ ID NO: 122; Human_OSMR) (R&D Systems, Minneapolis, Minn.) OSMR was determined using surface plasmon resonance (SPR) on a Biacore system (Biacore Life Sciences (GE Healthcare), Uppsala, Sweden). To avoid affinity differences associated with differential surface preparation that can occur when immobilizing antibodies to surfaces; OSMR from each species was directly conjugated to individual surfaces. Immobilization was obtained by amine coupling 5 μg/mL OSMR using N-hydroxysuccinimide (NHS)/1-Ethyl-3-(3-dimethylaminopropyl) carbodiimide (EDC) chemistry. Chips were quenched with ethanolamine and the affinity with which all candidate mAbs bound to the immobilized OSMR was evaluated. All curves were fit to a 1:1 model. […] Results for affinity measurements are described herein.
Data from an ELISA represents an equilibrium state where the antibody is allowed to associate and dissociate over a one-hour period resulting in steady-state binding. Using Biacore, the target protein is immobilized to a surface and the antibody is passed over this surface in a mobile liquid phase. Protein-protein interaction is determined from changes in the surface resonance which allows for calculation of association (kₐ), disassociation (kd), and affinity constant (KD). While not wishing to be bound to one hypothesis we present data from ELISA and Biacore experiments, using the same preparation of antibody, that may result in agreement between the two methods with respect to binding but also may show contradictory results due to the nature of the binding kinetics and different assay dynamics. The data presented in Table A (in combination with experimental results from yeast display mutational analysis in Example 21) allow for the definition of a structure:function relationship to be defined between the anti-OSMR antibodies described here and their ability to bind and block IL-31 and OSM-mediated signaling through the OSMR receptor.

Binder	Kd [nM]	koff [s⁻¹]	kon [M⁻¹ s⁻¹]
B1	0.202	6.08e-05	301000
B2	0.135	4.3e-05	319000
B3	0.156	5.09e-05	326000
B4	0.139	4.35e-05	312000
B5	0.16	5.35e-05	335000
B6	0.123	3.75e-05	305000
B7	0.161	5.29e-05	329000
B8	4.08	0.000646	159000
B9	0.164	4.8e-05	293000
B10	0.359	0.000116	324000
B11	4.06	0.00061	150000
B12	1.01	0.000118	117000
B13	0.805	8.07e-05	100000
B14	2.07	0.000275	132000
B15	0.812	8.43e-05	104000
B16	0.6	0.000105	174000
B17	0.884	9.49e-05	107000
B18	0.445	4.49e-05	101000
B19	0.446	4.44e-05	99500
